# Where a chain is given by its changes, count along the chain named.
# Experiments:
# KLTCLSSYCWLF = tested on: T1, KLTCLSSYCWLF
# T1 sequence: KLTCLSSYCWLF
# k-MeLeu-TCLASYCWLA = tested on: T2, k-MeLeu-TCLASYCWLA
# T2 sequence: KLTCLASYCWLA
# compound 24 = tested on: T3, compound 24
# T3 sequence: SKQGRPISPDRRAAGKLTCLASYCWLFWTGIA
# [1] = tested on: T4, PRIRTVGPGSRSASGKLTCLASYCWLFFTGIA
# T4 sequence: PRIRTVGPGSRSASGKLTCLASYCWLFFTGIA
# [2] = tested on: T5, QWQIAGQVLKRRAPA KLTCLASYCWLFWTGIA
# T5 sequence: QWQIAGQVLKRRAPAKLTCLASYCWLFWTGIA
# compound 25 = tested on: T6, compound 25
# T6 sequence: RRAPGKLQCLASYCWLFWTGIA
# [3] = tested on: T7, C(PEG5K)GGGLVPRGGG-RRAPGKLT-Asp-LASY-Lys-WLFWTGIA
# T7 sequence: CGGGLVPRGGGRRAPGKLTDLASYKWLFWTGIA
# [4] = tested on: T8, RRAPGKLTCL-MeAla-SYCWLFWTGIA
# T8 sequence: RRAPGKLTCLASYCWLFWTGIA
# compound B = tested on: T9, compound B
# T9 sequence: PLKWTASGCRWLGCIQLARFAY
# [5] = tested on: T10, TQWAQVGPRG RRAQG KLTCLASYCWLFWTGIA
# T10 sequence: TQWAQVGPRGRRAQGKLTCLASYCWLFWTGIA
# KLTCLASYCQLF = tested on: T11, KLTCLASYCQLF
# T11 sequence: KLTCLASYCQLF
# KLQCLASYCWLFWTGIA = tested on: T12, KLQCLASYCWLFWTGIA
# T12 sequence: KLQCLASYCWLFWTGIA
# compound 22 = tested on: T13, compound 22
# T13 sequence: T3 sequence
# [6] = tested on: T14, RRAPGKLTCLASYCWLF WAGYP SLRGSLLVGV
# T14 sequence: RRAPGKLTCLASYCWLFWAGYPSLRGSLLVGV
# KLTCLAAYCWLF = tested on: T15, KLTCLAAYCWLF
# T15 sequence: KLTCLAAYCWLF
# Dab-LTCLASYCWLF = tested on: T16, Dab-LTCLASYCWLF
# T16 sequence: XLTCLASYCWLF
# [7] = tested on: T17, RRAPGKLTCLASYCWK(PEG2-Biotin)FWTGIA
# T17 sequence: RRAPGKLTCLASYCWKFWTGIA
# RRAPAKLQCLASYCWLFWTGIA = tested on: T18, RRAPAKLQCLASYCWLFWTGIA
# T18 sequence: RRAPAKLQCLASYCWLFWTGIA
# KLTCLASYCWAF = tested on: T19, KLTCLASYCWAF
# T19 sequence: KLTCLASYCWAF
# rRAPGKLTCLASYCWLSWTGIA = tested on: T20, rRAPGKLTCLASYCWLSWTGIA
# T20 sequence: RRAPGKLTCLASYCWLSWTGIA
# compound 18 = tested on: T21, compound 18
# T21 sequence: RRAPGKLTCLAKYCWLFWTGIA
# [8] = tested on: T22, Lys(palmitoyl)-PEG16-Lys(PEG2-Biotin)-PEG16-rRAPGKLTCLASYCWLFWTGIA
# T22 sequence: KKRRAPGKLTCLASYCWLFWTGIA
# [9] = tested on: T23, RR-MeAla-PGKLTCLASYCWLFWTGIA
# T23 sequence: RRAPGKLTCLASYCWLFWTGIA
# KLTCLASYCWL-MePhe = tested on: T24, KLTCLASYCWL-MePhe
# T24 sequence: KLTCLASYCWLF
# KLTCLASYCALF = tested on: T25, KLTCLASYCALF
# T25 sequence: KLTCLASYCALF
# KRAPGKLQCLASYCWLFWTGIA = tested on: T26, KRAPGKLQCLASYCWLFWTGIA
# T26 sequence: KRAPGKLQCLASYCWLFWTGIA
# ALTCLAAYCALF = tested on: T27, ALTCLAAYCALF
# T27 sequence: ALTCLAAYCALF
# [10] = tested on: T28, RRAPGKLTCLASYCWLF WTGLA STLYKTYTRE
# T28 sequence: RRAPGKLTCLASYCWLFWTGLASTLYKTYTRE
# [11] = tested on: T29, SKQGRPASPDrRAAGKLTCLASYCWLFWTGIA
# T29 sequence: T3 sequence with I7A
# [12] = tested on: T30, PRIRTVGSGSRSASGKLTCLASYCWLFWTGIA
# T30 sequence: T4 sequence with P8S, F28W
# [13] = tested on: T31, PRIRTVGPGSRSASGKLTCLASYCWLFWTFIA
# T31 sequence: T4 sequence with F28W, G30F
# (PEG)27-KLTCLASYCWLF = tested on: T32, (PEG)27-KLTCLASYCWLF
# T32 sequence: KLTCLASYCWLF
# rRAAGKATCLASYCWLFATGIA = tested on: T33, rRAAGKATCLASYCWLFATGIA
# T33 sequence: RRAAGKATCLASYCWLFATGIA
# KLTCLASACWLF = tested on: T34, KLTCLASACWLF
# T34 sequence: KLTCLASACWLF
# HYARVQLRCLDGYCWLLTKSRM = tested on: T35, HYARVQLRCLDGYCWLLTKSRM
# T35 sequence: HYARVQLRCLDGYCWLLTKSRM
# KLTCLASYCWYF = tested on: T36, KLTCLASYCWYF
# T36 sequence: KLTCLASYCWYF
# [14] = tested on: T37, RRAPGKLT-Asp-LASY-Orn-WLFWTGIA-COOH
# T37 sequence: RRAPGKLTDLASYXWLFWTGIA
# [15] = tested on: T38, RSHSLDRMAG RRAPG KLTCLASYCWLFWTGIA
# T38 sequence: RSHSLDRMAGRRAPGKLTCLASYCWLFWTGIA
# [16] = tested on: T39, GSVRRALFVA ARAPA KLTCLASYCWLFWTGIA
# T39 sequence: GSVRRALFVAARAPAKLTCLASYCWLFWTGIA
# compound 2 = tested on: T40, compound 2
# T40 sequence: KLTCLASYCWLF
# rRAPGKLTCLASSCWLFWTGIA = tested on: T41, rRAPGKLTCLASSCWLFWTGIA
# T41 sequence: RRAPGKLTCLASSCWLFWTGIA
# [17] = tested on: T42, Glu(Biotinyl-PEG)-RAPGKLTCLASYCWLFWTGIA
# T42 sequence: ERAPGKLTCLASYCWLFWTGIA
# compound 1 = tested on: T43, compound 1
# T43 sequence: KLTCLASYCWLF
# [18] = tested on: T44, RRAPGKLTCLASYCWLF QTGWA YWGYRQHPGS
# T44 sequence: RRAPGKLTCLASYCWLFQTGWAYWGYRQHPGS
# [19] = tested on: T45, RRAPGKLTCLASYCWLF STGVA THANTTATAQ
# T45 sequence: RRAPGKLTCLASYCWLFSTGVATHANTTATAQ
# [20] = tested on: T46, RRAPGKLTCLASYCWLF GSGIS LSRAPESAAP
# T46 sequence: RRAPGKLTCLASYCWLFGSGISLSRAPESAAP
# [21] = tested on: T47, RRAPGKLQCLASYCWLFWTG-Nle-A
# T47 sequence: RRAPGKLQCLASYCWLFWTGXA
# [22] = tested on: T48, RRAPGKCTALASYCWLFWTGIA-COOH
# T48 sequence: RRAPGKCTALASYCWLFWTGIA
# [23] = tested on: T49, RRAPGKLTCLASYAWLCWTGIA-COOH
# T49 sequence: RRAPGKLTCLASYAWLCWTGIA
# RRAPKKLQCLASYCWLFWTGIA = tested on: T50, RRAPKKLQCLASYCWLFWTGIA
# T50 sequence: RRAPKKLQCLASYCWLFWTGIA
substance,measurement,setting,value
human Factor IXa,"Vmax, FXa generation assay",KLTCLSSYCWLF,> 2
same,"Vmax, FXa generation assay",k-MeLeu-TCLASYCWLA,> 2
same,"Vmax, FXa generation assay with hFIXa",compound 24,> 3
same,"Vmax, FXa generation assay",[1],> 3
same,"Vmax, FXa generation assay",[2],> 2
same,"Vmax, FXa generation assay with hFIXa",compound 25,> 2
same,"Vmax, FXa generation assay; (++) means 1-2",[3],(++)
same,"Vmax, FXa generation assay; (++) means 1-2",[4],(++)
same,"Vmax, FXa generation assay with hFIXa; (++) means 1-2",compound B,(++)
same,"Vmax, FXa generation assay",[5],> 3
same,"Vmax, FXa generation assay",KLTCLASYCQLF,> 3
same,"Vmax, FXa generation assay",KLQCLASYCWLFWTGIA,> 2
same,"Vmax, FXa generation assay with hFIXa",compound 22,> 3
same,"Vmax, FXa generation assay",[6],> 3
same,"Vmax, FXa generation assay; (++) means 1-2",KLTCLAAYCWLF,(++)
same,"Vmax, FXa generation assay; (++) means 1-2",Dab-LTCLASYCWLF,(++)
same,"Vmax, FXa generation assay",[7],> 3
same,"Vmax, FXa generation assay",RRAPAKLQCLASYCWLFWTGIA,> 2
same,"Vmax, FXa generation assay",KLTCLASYCWAF,> 2
same,"Vmax, FXa generation assay",rRAPGKLTCLASYCWLSWTGIA,> 1.8
same,"Vmax, FXa generation assay with hFIXa",compound 18,> 2
same,"Vmax, FXa generation assay",[8],> 3
same,"Vmax, FXa generation assay",[9],> 3
same,"Vmax, FXa generation assay; (++) means 1-2",KLTCLASYCWL-MePhe,(++)
same,"Vmax, FXa generation assay",KLTCLASYCALF,> 3
same,"Vmax, FXa generation assay",KRAPGKLQCLASYCWLFWTGIA,> 2
same,"Vmax, FXa generation assay; (++) means 1-2",ALTCLAAYCALF,(++)
same,"Vmax, FXa generation assay; (++) means 1-2",[10],(++)
same,"Vmax, FXa generation assay",[11],> 2
same,"Vmax, FXa generation assay",[12],> 3
same,"Vmax, FXa generation assay",[13],> 2
same,"Vmax, FXa generation assay",(PEG)27-KLTCLASYCWLF,> 2
same,"Vmax, FXa generation assay; (++) means 1-2",rRAAGKATCLASYCWLFATGIA,(++)
same,"Vmax, FXa generation assay",KLTCLASACWLF,> 2
same,"Vmax, FXa generation assay",HYARVQLRCLDGYCWLLTKSRM,> 2.5
same,"Vmax, FXa generation assay",KLTCLASYCWYF,> 2
same,"Vmax, FXa generation assay; (++) means 1-2",[14],(++)
same,"Vmax, FXa generation assay",[15],> 3
same,"Vmax, FXa generation assay",[16],> 2
same,"Vmax (mOD/min min), with phospholipids",compound 2,4.22 mOD/min min
same,"Vmax (mOD/min min), without phospholipids",compound 2,3.05 mOD/min min
same,"Vmax, FXa generation assay",compound 2,> 3
same,"Vmax, FXa generation assay with hFIXa",compound 2,> 3
same,"Vmax, FXa generation assay; (++) means 1-2",rRAPGKLTCLASSCWLFWTGIA,(++)
same,"Vmax, FXa generation assay",[17],> 0.8
same,"(kcat/KM)app (M^-1s^-1) of FIXa on the chromogenic substrate, compound 1 at 10 µM",compound 1,1360 M⁻¹ s⁻¹
same,"Vmax (mOD/min min), with phospholipids",compound 1,3.98 mOD/min min
same,"Vmax (mOD/min min), without phospholipids",compound 1,2.6 mOD/min min
same,"Vmax, FXa generation assay with hFIXa",compound 1,> 2
same,"kcat (min^-1) of hFIXa for FX, compound at 3 µM",compound 1,0.0144 min⁻¹
same,Δ KM (Km compound/Km buffer),compound 1,0.31
same,"Vmax, FXa generation assay",[18],> 2
same,"Vmax, FXa generation assay",[19],> 3
same,"Vmax, FXa generation assay",[20],> 3
same,"Vmax, FXa generation assay",[21],> 2
same,"Vmax, FXa generation assay; (++) means 1-2",[22],(++)
same,"Vmax, FXa generation assay",[23],> 0.5
same,"Vmax, FXa generation assay; (++) means 1-2",RRAPKKLQCLASYCWLFWTGIA,(++)

# Reference: US20140303084
